Source: the supplement of paper PMC9112550, “Optimization of the antimicrobial peptide Bac7 by deep mutational scanning” (BMC Biology, 2022)

System: Escherichia coli TOP10
Test: shrunken log2 fold change of peptide-encoding DNA abundance (4.5 h post-induction vs induction); higher = less antimicrobial activity (less host growth inhibition)
Details: time post-induction: 4.5 h; library: site-saturation at positions 5, 18, 19, 20
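Also: peptides expressed intracellularly from a pBAD plasmid library in pooled LB shake-flask culture, induced with 0.3% L-arabinose, DNA abundance read by NGS, three biological replicates, DESeq2 with apeglm shrinkage.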

| Sequence | shrunken log2 fold change |
| --- | --- |
| RRIRDRPPRLPRPRPRPKYVPRP | 0.13 |
| RRIRDRPPRLPRPRPRPLAGPRP | 0.121 |
| RRIRDRPPRLPRPRPRPLCKPRP | -0.224 |
| RRIRDRPPRLPRPRPRPLDTPRP | 0.0803 |
| RRIRDRPPRLPRPRPRPLEDPRP | -0.00783 |
| RRIRDRPPRLPRPRPRPLGWPRP | 0.366 |
| RRIRDRPPRLPRPRPRPLKKPRP | 0.31 |
| RRIRDRPPRLPRPRPRPLMMPRP | 0.0576 |
| RRIRDRPPRLPRPRPRPLPVPRP | -0.421 |
| RRIRDRPPRLPRPRPRPLRTPRP | 0.215 |
| RRIRDRPPRLPRPRPRPLVWPRP | 0.831 |
| RRIRDRPPRLPRPRPRPLYNPRP | -0.321 |
| RRIRDRPPRLPRPRPRPLYYPRP | 0.176 |
| RRIRDRPPRLPRPRPRPMCDPRP | 0.0645 |
| RRIRDRPPRLPRPRPRPMCYPRP | -0.0124 |
| RRIRDRPPRLPRPRPRPMDAPRP | 0.251 |
| RRIRDRPPRLPRPRPRPMDQPRP | 0.326 |
| RRIRDRPPRLPRPRPRPMDRPRP | -0.01 |
| RRIRDRPPRLPRPRPRPMERPRP | -0.0122 |
| RRIRDRPPRLPRPRPRPMGAPRP | 1.43 |
| RRIRDRPPRLPRPRPRPMGSPRP | 0.00408 |
| RRIRDRPPRLPRPRPRPMLCPRP | -0.00642 |
| RRIRDRPPRLPRPRPRPMLIPRP | -0.0943 |
| RRIRDRPPRLPRPRPRPMLYPRP | -0.0839 |
| RRIRDRPPRLPRPRPRPMMAPRP | -0.00174 |

| Sequence | shrunken log2 fold change |
| --- | --- |
| RRIRDRPPRLPRPRPRPMMMPRP | -0.0648 |
| RRIRDRPPRLPRPRPRPMMTPRP | 0.395 |
| RRIRDRPPRLPRPRPRPMNPPRP | -0.0564 |
| RRIRDRPPRLPRPRPRPMNYPRP | 0.185 |
| RRIRDRPPRLPRPRPRPMRPPRP | 0.804 |
| RRIRDRPPRLPRPRPRPMSFPRP | -0.00238 |
| RRIRDRPPRLPRPRPRPMSPPRP | 0.0807 |
| RRIRDRPPRLPRPRPRPMTEPRP | 0.0462 |
| RRIRDRPPRLPRPRPRPMTTPRP | -0.0624 |
| RRIRDRPPRLPRPRPRPMVFPRP | -0.0423 |
| RRIRDRPPRLPRPRPRPMVHPRP | 0.234 |
| RRIRDRPPRLPRPRPRPMWMPRP | 0.149 |
| RRIRDRPPRLPRPRPRPMWQPRP | 0.00699 |
| RRIRDRPPRLPRPRPRPMWTPRP | 0.217 |
| RRIRDRPPRLPRPRPRPMWYPRP | -0.0225 |
| RRIRDRPPRLPRPRPRPNDFPRP | 0.239 |
| RRIRDRPPRLPRPRPRPNDRPRP | -0.12 |
| RRIRDRPPRLPRPRPRPNFAPRP | 0.605 |
| RRIRDRPPRLPRPRPRPNFEPRP | 0.282 |
| RRIRDRPPRLPRPRPRPNIAPRP | 0.169 |
| RRIRDRPPRLPRPRPRPNIDPRP | 0.068 |
| RRIRDRPPRLPRPRPRPNKVPRP | -0.494 |
| RRIRDRPPRLPRPRPRPNMFPRP | -0.0684 |
| RRIRDRPPRLPRPRPRPNMSPRP | -0.0444 |
| RRIRDRPPRLPRPRPRPNNEPRP | -0.526 |

| Sequence | shrunken log2 fold change |
| --- | --- |
| RRIRDRPPRLPRPRPRPNNFPRP | -0.418 |
| RRIRDRPPRLPRPRPRPNNIPRP | -0.558 |
| RRIRDRPPRLPRPRPRPNNVPRP | -0.243 |
| RRIRDRPPRLPRPRPRPNNYPRP | -0.542 |
| RRIRDRPPRLPRPRPRPNPSPRP | 0.13 |
| RRIRDRPPRLPRPRPRPNRCPRP | 0.0339 |
| RRIRDRPPRLPRPRPRPNRVPRP | -0.023 |
| RRIRDRPPRLPRPRPRPNSFPRP | -0.0585 |
| RRIRDRPPRLPRPRPRPNSYPRP | 0.179 |
| RRIRDRPPRLPRPRPRPNVCPRP | -0.0195 |
| RRIRDRPPRLPRPRPRPNVHPRP | -0.303 |
| RRIRDRPPRLPRPRPRPNVVPRP | -0.0354 |
| RRIRDRPPRLPRPRPRPNWDPRP | 0.0503 |
| RRIRDRPPRLPRPRPRPNWKPRP | -0.0238 |
| RRIRDRPPRLPRPRPRPNWPPRP | 0.0913 |
| RRIRDRPPRLPRPRPRPNYPPRP | 0.0151 |
| RRIRDRPPRLPRPRPRPPALPRP | 0.239 |
| RRIRDRPPRLPRPRPRPPAQPRP | 0.296 |
| RRIRDRPPRLPRPRPRPPAVPRP | 0.312 |
| RRIRDRPPRLPRPRPRPPCEPRP | 0.121 |
| RRIRDRPPRLPRPRPRPPCSPRP | 0.126 |
| RRIRDRPPRLPRPRPRPPDIPRP | -0.0754 |
| RRIRDRPPRLPRPRPRPPEDPRP | 0.402 |
| RRIRDRPPRLPRPRPRPPEMPRP | 0.78 |
| RRIRDRPPRLPRPRPRPPENPRP | 0.856 |

| Sequence | shrunken log2 fold change |
| --- | --- |
| RRIRDRPPRLPRPRPRPPEVPRP | 0.705 |
| RRIRDRPPRLPRPRPRPPHFPRP | 0.173 |
| RRIRDRPPRLPRPRPRPPHWPRP | 0.322 |
| RRIRDRPPRLPRPRPRPPIHPRP | -0.487 |
| RRIRDRPPRLPRPRPRPPIIPRP | -0.0464 |
| RRIRDRPPRLPRPRPRPPKQPRP | -0.0537 |
| RRIRDRPPRLPRPRPRPPKRPRP | -0.0222 |
| RRIRDRPPRLPRPRPRPPMTPRP | 0.425 |
| RRIRDRPPRLPRPRPRPPNCPRP | -0.0514 |
| RRIRDRPPRLPRPRPRPPNVPRP | -0.0362 |
| RRIRDRPPRLPRPRPRPPPYPRP | -0.0814 |
| RRIRDRPPRLPRPRPRPPRAPRP | 1.1 |
| RRIRDRPPRLPRPRPRPPRVPRP | 0.727 |
| RRIRDRPPRLPRPRPRPPRWPRP | 0.331 |
| RRIRDRPPRLPRPRPRPPSDPRP | 0.251 |
| RRIRDRPPRLPRPRPRPPTAPRP | 0.0444 |
| RRIRDRPPRLPRPRPRPPTHPRP | 0.21 |
| RRIRDRPPRLPRPRPRPPVYPRP | -0.175 |
| RRIRDRPPRLPRPRPRPPWCPRP | 0.203 |
| RRIRDRPPRLPRPRPRPPWMPRP | 0.261 |
| RRIRDRPPRLPRPRPRPPWRPRP | 0.499 |
| RRIRDRPPRLPRPRPRPPYEPRP | -0.0831 |
| RRIRDRPPRLPRPRPRPQDAPRP | -0.103 |
| RRIRDRPPRLPRPRPRPQEAPRP | -0.0652 |
| RRIRDRPPRLPRPRPRPQENPRP | 0.0153 |

| Sequence | shrunken log2 fold change |
| --- | --- |
| RRIRDRPPRLPRPRPRPQFIPRP | -0.935 |
| RRIRDRPPRLPRPRPRPQGLPRP | 0.0467 |
| RRIRDRPPRLPRPRPRPQHRPRP | -0.198 |
| RRIRDRPPRLPRPRPRPQHTPRP | -0.403 |
| RRIRDRPPRLPRPRPRPQIWPRP | 0.352 |
| RRIRDRPPRLPRPRPRPQLCPRP | 0.365 |
| RRIRDRPPRLPRPRPRPQLDPRP | 0.207 |
| RRIRDRPPRLPRPRPRPQLTPRP | 0.0489 |
| RRIRDRPPRLPRPRPRPQLWPRP | 0.92 |
| RRIRDRPPRLPRPRPRPQMHPRP | 0.156 |
| RRIRDRPPRLPRPRPRPQNRPRP | -0.28 |
| RRIRDRPPRLPRPRPRPQNYPRP | -0.589 |
| RRIRDRPPRLPRPRPRPQPMPRP | -0.0809 |
| RRIRDRPPRLPRPRPRPQREPRP | -0.0375 |
| RRIRDRPPRLPRPRPRPQRGPRP | 0.0499 |
| RRIRDRPPRLPRPRPRPQTDPRP | -0.0328 |
| RRIRDRPPRLPRPRPRPQVGPRP | 0.132 |
| RRIRDRPPRLPRPRPRPQVIPRP | -0.0205 |
| RRIRDRPPRLPRPRPRPQVQPRP | -0.0379 |
| RRIRDRPPRLPRPRPRPQVYPRP | 0.175 |
| RRIRDRPPRLPRPRPRPQWNPRP | -0.37 |
| RRIRDRPPRLPRPRPRPQYKPRP | -0.121 |
| RRIRDRPPRLPRPRPRPQYSPRP | -0.028 |
| RRIRDRPPRLPRPRPRPRAAPRP | 0.609 |
| RRIRDRPPRLPRPRPRPREWPRP | -0.00146 |

| Sequence | shrunken log2 fold change |
| --- | --- |
| RRIRDRPPRLPRPRPRPRFEPRP | 0.0618 |
| RRIRDRPPRLPRPRPRPRFLPRP | -0.201 |
| RRIRDRPPRLPRPRPRPRFPPRP | 1.75 |
| RRIRDRPPRLPRPRPRPRFTPRP | 0.21 |
| RRIRDRPPRLPRPRPRPRGCPRP | 0.786 |
| RRIRDRPPRLPRPRPRPRGYPRP | 0.03 |
| RRIRDRPPRLPRPRPRPRHRPRP | 0.375 |
| RRIRDRPPRLPRPRPRPRHVPRP | 0.153 |
| RRIRDRPPRLPRPRPRPRIAPRP | 0.114 |
| RRIRDRPPRLPRPRPRPRIDPRP | 0.0784 |
| RRIRDRPPRLPRPRPRPRIGPRP | -0.00724 |
| RRIRDRPPRLPRPRPRPRIRPRP | -0.0469 |
| RRIRDRPPRLPRPRPRPRKHPRP | -0.134 |
| RRIRDRPPRLPRPRPRPRKNPRP | 0.244 |
| RRIRDRPPRLPRPRPRPRMHPRP | -0.268 |
| RRIRDRPPRLPRPRPRPRPAPRP | 0.966 |
| RRIRDRPPRLPRPRPRPRPEPRP | 0.538 |
| RRIRDRPPRLPRPRPRPRPWPRP | 0.25 |
| RRIRDRPPRLPRPRPRPRRAPRP | 0.691 |
| RRIRDRPPRLPRPRPRPRSRPRP | 0.00639 |
| RRIRDRPPRLPRPRPRPRTIPRP | -0.018 |
| RRIRDRPPRLPRPRPRPRTTPRP | 0.0893 |
| RRIRDRPPRLPRPRPRPRTVPRP | -0.142 |
| RRIRDRPPRLPRPRPRPRVCPRP | 0.372 |
| RRIRDRPPRLPRPRPRPRVDPRP | 0.325 |
